Here are results for 19 molecules from US11472877 (Alector, dated 2022).

Sequences and labels used below:
T1: mouse TREM2 on BWZ cells (mouse, UniProt Q99NH8 19-227)
T1 construct: whole, on cells; also called BWZ Mouse TREM2
T1 sequence (looked up): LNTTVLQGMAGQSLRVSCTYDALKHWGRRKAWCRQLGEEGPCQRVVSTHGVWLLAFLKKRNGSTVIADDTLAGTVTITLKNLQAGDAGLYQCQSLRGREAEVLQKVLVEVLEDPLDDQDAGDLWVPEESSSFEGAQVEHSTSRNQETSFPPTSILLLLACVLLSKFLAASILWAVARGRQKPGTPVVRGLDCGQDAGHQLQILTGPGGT

T2: human TREM2 on BWZ cells (human, UniProt Q9NZC2 19-230)
T2 construct: whole, on cells; not tied to the cell line; also called BWZ Human TREM2
T2 sequence (looked up): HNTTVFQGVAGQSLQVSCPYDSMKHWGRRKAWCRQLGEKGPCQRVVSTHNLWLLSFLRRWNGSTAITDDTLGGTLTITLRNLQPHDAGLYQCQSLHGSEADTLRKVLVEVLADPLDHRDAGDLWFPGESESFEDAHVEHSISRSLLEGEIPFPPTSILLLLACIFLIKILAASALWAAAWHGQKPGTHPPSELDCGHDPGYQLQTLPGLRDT

T3: mouse TREM1 on CHO cells (mouse, UniProt Q9JKE2 21-230)
T3 construct: also called CHO-mT1
T3 sequence: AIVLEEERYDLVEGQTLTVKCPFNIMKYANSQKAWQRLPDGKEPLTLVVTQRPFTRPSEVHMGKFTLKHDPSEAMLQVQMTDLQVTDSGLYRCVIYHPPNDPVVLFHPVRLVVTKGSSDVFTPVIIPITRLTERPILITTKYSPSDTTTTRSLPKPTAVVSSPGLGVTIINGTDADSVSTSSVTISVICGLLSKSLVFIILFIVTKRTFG

B1: T1-13 (antibody, IgG1, V domains shown)
VH: EVQLVESGGGLVKPGGSLRLSCAASGFTFSSYSMNWVRQAPGKGLEWVSSISSSSNYIYYADSVKGRFTISRDNAKNSLYLQMNSLRAEDTAVYYCARGRYRRTGSLDVWGQGTMVTVSS
VL: EIVLTQSPGTLSLSPGERATLSCRASQSVSSSFLAWYQQKPGQAPRLLIYGASSRATGIPDRFSGSGSGTDFTLTISRLEPEDFAVYYCQQLDSHPPTFGGGTKVEIK
notes: huIgG1; also called TI-13; ADI-19080
B2: T1-17 (antibody, IgG1, V domains shown)
VH: QVQLQESGPGLVKPSETLSLTCTVSGGSISSYYWSWIRQPPGKGLEWIGSIYYSGSTNYNPSLKSRVTISVDTSKNQFSLKLSSVTAADTAVYYCARGAPGGRHNWFDPWGQGTLVTVSS
VL: DIQMTQSPSSLSASVGDRVTITCQASQDISNYLNWYQQKPGKAPKLLIYDASNLATGVPSRFSGSGSGTDFTFTISSLQPEDIATYYCQQSDIHPRTFGGGTKVEIK
notes: huIgG1; also called TI-17; ADI-19084
B3: T1-75 (antibody, IgG1, V domains shown)
VH: QVQLVESGGGLVQPGRSLRLSCAASGFTFDDYAMHWVRQAPGKGLEWVSGISWNSGDIGYADSVKGRFTISRDNAKNSLYLQMNSLRAEDTALYYCAKAPRTRWTYFDYWGQGTLVTVSS
VL: EIVLTQSPATLSLSPGERATLSCRASQSVSSYLAWYQQKPGQAPRLLIYDASNRATGIPARFSGSGSGTDFTLTISSLEPEDFAVYYCQHYNLWRTFGGGTKVEIK
notes: huIgG1; also called TI-75; ADI-19152
B4: T1-33 (antibody, IgG1, V domains shown)
VH: QVQLVESGGGVVQPGRSLRLSCAASGFTFSNYGMHWVRQAPGKGLEWVAVIWYDGSNKYYADSVKGRFTISRDNSKNTLYLQMNSLRAEDTAVYYCAKGSTHRGSAYGMDVWGQGTTVTVSS
VL: DIQMTQSPSSVSASVGDRVTITCRASQGISSWLAWYQQKPGKAPKLLIYAASSLQSGVPSRFSGSGSGTDFTLTISSLQPEDFATYYCQQINDHPFTFGGGTKVEIK
notes: huIgG1; also called TI-33; ADI-19107
B5: T1-14 (antibody, IgG1, V domains shown)
VH: QVQLVESGGGVVQPGRSLRLSCAASGFTFSSYGMHWVRQAPGKGLEWVAVISYDGSNKYYADSVKGRFTISRDNSKNTLYLQMNSLRAEDTAVYYCARRSSGDYLDVWGQGTMVTVSS
VL: not shown
notes: huIgG1; also called TI-14; ADI-19081
B6: T1-7 (antibody, IgG1, V domains shown)
VH: QVQLVQSGAEVKKPGASVKVSCKASGYTFTSYYMHWVRQAPGQGLEWMGIINPSGGSTSYAQKFQGRVTMTRDTSTSTVYMELSSLRSEDTAVYYCARGLIYGDAFDYWGQGTLVTVSS
VL: not shown
notes: huIgG1; also called TI-7; ADI-19073
B7: T1-1 (antibody, IgG1, V domains shown)
VH: QVQLVQSGAEVKKPGSSVKVSCKASGGTFSSYAISWVRQAPGQGLEWMGGIIPIFGTANYAQKFQGRVTITADESTSTAYMELSSLRSEDTAVYYCARGQGSDHYYYGMDVWGQGTTVTVSS
VL: not shown
notes: huIgG1; also called TI-1; ADI-19067
B8: T1-77 (antibody, IgG1, V domains shown)
VH: QVQLQESGPGLVKPSETLSLTCAVSGYSISSGYYWAWIRQPPGKGLEWIGSIYHSGSTYYNPSLKSRVTISVDTSKNQFSLKLSSVTAADTAVYYCARGGPYPWSGWFDPWGQGTLVTVSS
VL: EIVMTQSPATLSVSPGERATLSCRASQSVGSNLAWYQQKPGQAPRLLIYGASTRATGIPARFSGSGSGTEFTLTISSLQSEDFAVYYCQQHDVWPYTFGGGTKVEIK
notes: huIgG1; also called TI-77; ADI-19154
B9: T1-4 (antibody, IgG1, V domains shown)
VH: QVQLVQSGAEVKKPGSSVKVSCKASGGTFSSYAISWVRQAPGQGLEWMGGIIPIFGTANYAQKFQGRVTITADESTSTAYMELSSLRSEDTAVYYCARHYYYGYAYFDLWGRGTLVTVSS
VL: B8 VL with G30S, H91F, D92N, V93N, W94H, Y96I
notes: huIgG1; also called TI-4; ADI-19070
B10: T1-76 (antibody, IgG1, V domains shown)
VH: not shown
VL: DIQMTQSPSTLSASVGDRVTITCRASQSISSWLAWYQQKPGKAPKLLIYDASSLESGVPSRFSGSGSGTEFTLTISSLQPDDFATYYCQQHSTYSWTFGGGTKVEIK
notes: huIgG1; also called TI-76; ADI-19153
B11: T1-34 (antibody, IgG1, V domains shown)
VH: EVQLVESGGGLVKPGGSLRLSCAASGFTFSSYSMNWVRQAPGKGLEWVSSISSSSNYIYYADSVKGRFTISRDNAKNSLYLQMNSLKAEDTAVYYCARRPDDRRGLFQHWGQGTLVTVSS
VL: B10 VL with S30N, Y49S, H91Y, S92G, T93P, S95P, W96Y
notes: huIgG1; also called TI-34; ADI-19108
B12: T1-11 (antibody, IgG1, V domains shown)
VH: QLQLQESGPGLVKPSETLSLTCTVSGGSISSSSYYWGWIRQPPGKGLEWIGSIYYSGSTYYNPSLKSRVTISVDTSKNQFSLKLSSVTAADTAVYYCARSGEYGFDLWGRGTLVTVSS
VL: not shown
notes: huIgG1; also called TI-11; ADI-19078
B13: T1-15 (antibody, IgG1, V domains shown)
VH: EVQLVESGGGLVKPGGSLRLSCAASGFTFSSYSMNWVRQAPGKGLEWVSSISSSSSYIYYADSVKGRFTISRDNAKNSLYLQMNSLRAEDTAVYYCARRGGSYDAFQHWGQGTLVTVSS
VL: B1 VL with F33Y, L92A, D93F, S94I, H95S
notes: huIgG1; also called TI-15; ADI-19082
B14: T1-2 (antibody, IgG1, V domains shown)
VH: QVQLVQSGAEVKKPGSSVKVSCKASGGTFSSYAISWVRQAPGQGLEWMGGIIPIFGTANYAQKFQGRVTITADESTSTAYMELSSLRSEDTAVYYCAREGGPRGASFNWFDPWGQGTLVTVSS
VL: B1 VL with F33Y, L92Y, D93L, S94G, H95F
notes: huIgG1; also called TI-2; ADI-19068
B15: T1-22 (antibody, IgG1, V domains shown)
VH: QVQLQESGPGLVKPSETLSLTCTVSGGSISSYYWSWIRQPPGKGLEWIGHIYYSGSTNYNPSLKSRVTISVDTSKNQFSLKLSSVTAADTAVYYCARDAGRYYGSSSSWYFDLWGRGTLVTVSS
VL: B1 VL with F33Y, L92Y, D93L, S94I, H95P, P97I
notes: huIgG1; also called TI-22; ADI-19089
B16: T1-5 (antibody, IgG1, V domains shown)
VH: QVQLVQSGAEVKKPGASVKVSCKASGYTFTSYYMHWVRQAPGQGLEWMGVINPSGGSTSYAQKFQGRVTMTRDTSTSTVYMELSSLRSEDTAVYYCARESDGIDSYFDYWGQGTLVTVSS
VL: not shown
notes: huIgG1; also called TI-5; ADI-19071
B17: T1-78 (antibody, IgG1, V domains shown)
VH: QLQLQESGPGLVKPSETLSLTCTVSGGSISSSSYYWGWIRQPPGKGLEWIGSIYYSGSTYYNPSLKSRVTISVDTSKNQFSLKLSSVTAADTAVYYCARDLGQYEGYFDLWGRGTLVTVSS
VL: not shown
notes: huIgG1; also called TI-78; ADI-19155
B18: T1-12 (antibody, IgG1, V domains shown)
VH: B17 VH with D100G, L101G, Q103Y, Y104P, E105W, G106E, Y107A, L110Y, R113K, L116T
VL: EIVLTQSPATLSLSPGERATLSCRASQSVSSYLAWYQQKPGQAPRLLIYDASNRATGIPARFSGSGSGTDFTLTISSLEPEDFAVYYCQQYTSWPLTFGGGTKVEIK
notes: huIgG1; also called TI-12; ADI-19079
B19: T1-79 (antibody, IgG1, V domains shown)
VH: B17 VH with D100L, L101G, G102D, Q103G, E105R, G106I, Y107W, F108A, L110Y, R113Q
VL: not shown
notes: huIgG1; also called TI-79; ADI-19156

Positions count from the first letter of the chain named.

The target of one assay is T1, mouse TREM2 on BWZ cells. The assay is described as follows: FACS, BWZ mouse TREM2.
For B1, the “FOB Fold Over Background” value worked out at 1.2 fold.

The target in a further assay is T1, mouse TREM2 on BWZ cells. As to the kind of experiment: FACS, BWZ cells. (A flow cytometer gives signals particle by particle.)
B2: the binding result is recorded as “no binding”.

B3: the binding result is listed as “no binding”.

In the case of B4, the binding result was “no binding”.

As to B5, the binding result was “no binding”.

As for B6, the binding result was “no binding”.

As to B7, the binding result was “no binding”.

On to B8, for which the binding result is listed as “no binding”.

B9: the binding result is “no binding”.

On to B10, for which the binding result is reported as “no binding”.

As to B11, the binding result is “no binding”.

Regarding B12, the binding result is reported as “no binding”.

Turning to B1, the binding result is recorded as “no binding”.

Regarding B13, the binding result is recorded as “no binding”.

For B14, the binding result is given as “no binding”.

In the case of B15, the binding result is recorded as “no binding”.

As for B16, the binding result is recorded as “no binding”.

For B17, the binding result is “no binding”.

B18: the binding result is “no binding”.

With B19, the binding result is “no binding”.

The next assay has as its target T2, human TREM2 on BWZ cells. As to the kind of experiment: FACS, BWZ cells.
For B2, the binding result is given as “no binding”.

As to B3, the binding result is reported as “no binding”.

For the molecule B4, the binding result is “no binding”.

As for B5, the binding result was “no binding”.

On to B6, for which the binding result is “no binding”.

As for B7, the binding result is listed as “no binding”.

B8: the binding result is on record as “no binding”.

For the molecule B9, the binding result is listed as “no binding”.

As for B10, the binding result is listed as “no binding”.

As for B11, the binding result is on record as “no binding”.

For the molecule B12, the binding result is reported as “no binding”.

As for B1, the binding result was “no binding”.

B13: the binding result is recorded as “no binding”.

With B14, the binding result is “no binding”.

Consider B15, for which the binding result is recorded as “no binding”.

Turning to B16, the binding result is on record as “no binding”.

For B17, the binding result is “no binding”.

Consider B18, for which the binding result was “no binding”.

On to B19, for which the binding result is reported as “no binding”.

The target in the next assay is T2, human TREM2 on BWZ cells. The assay is described as follows: FACS, BWZ human TREM2.
In the case of B1, the “FOB Fold Over Background” value came out at 0.7 fold.

Another assay concerns the target T3, mouse TREM1 on CHO cells. The assay is described as follows: FACS, CHO mouse TREM1.
For B1, the “FOB Fold Over Background” value is 0.5 fold.
